# Measurements: US20090028842A1, “Dekkera/Brettanomyces Cytosine Deaminases And Their Use” (ZGene A/S, priority 2005, published 2009)
# B1: Sc CD (PZG738): cytosine deaminase from Saccharomyces cerevisiae (FCY1 gene), recombinant his-tagged protein in pET100 (protein, UniProt Q12178 1-158, looked up)
# Cytosine deaminase: MVTGGMASKWDQKGMDIAYEEAALGYKEGGVPIGGCLINNKDGSVLGRGHNMRFQKGSATLHGEISTLENCGRLEGKVYKDTTLYTTLSPCDMCTGAIIMYGIPRCVVGENVNFKSKGEKYLQTRGHEVVVVDDERCKKIMKQFIDERPQDWFEDIGE
# modifications: His tag
# notes: cytosine deaminase from Saccharomyces cerevisiae (FCY1 gene), recombinant his-tagged protein in pET100
# Tests used:
# [1] = CD activities with purified his-tagged proteins; assay type: biochemical; settings: purified his-tagged protein, 37° C., cytosine 500 μM, triplicates, mean with standard deviation
# Experimental: For recombinant protein expression, E. coli cells were grown to a density of A600 nm=0.5-0.6 in LB medium supplemented with 100 μg/ml ampicillin, and the expression was induced with 10 μM IPTG for 8 h at 25° C. The cells were harvested by centrifugation, and the pellet was resuspended in 25 ml ice-cold binding buffer A […] (50 mM sodium phosphate pH 8.0; 300 mM NaCl; 10% glycerol; 25 mM imidazole) containing protease inhibitor cocktail (Complete™-EDTA free from Roche Diagnostics). The cells were homogenized using a French Press, subjected to centrifugation at 12,000×g for 30 minutes (4° C.), filtered through a […] Whatman glass microfiber filter and a […] cellulose acetate filter, and loaded onto a 5 ml Ni^2+-NTA column (Qiagen). […]
# Bacteria or cell lines were grown as described, harvested and stored at −80° C. until activity testing. […] Cytosine deaminase activities were determined spectrophotometrically by monitoring the absorbance decrease at 286 nm (Δε286=−0.68 mM^−1 cm^−1) resulting from the deamination of cytosine to uracil. […]
# To characterize the substrate specificities of yeast CDs, purified proteins were measured at 37° C. and fixed cytosine concentration and assays was performed as described in Example 1 (Enzyme assays) (Table 3).
# [2] = assay type: physicochemical; settings: storage at 50° C., his-tagged enzyme
# Experimental: Purified and his-tagged CD from D. bruxellensis and S. cerevisiae CD were assayed after different periods of storage at 50° C. and 37° C. (FIGS. 8a and 8b). Indeed, D. bruxellensis CD was extremely stable at 50° C. when compared to S. cerevisiae CD which lost all activity after only 4 minutes. Half life for D. bruxellensis CD at 50° C. was app. 3 hours (FIG. 8a). […] It should be observed that the temperature stability of the proteins without his-tags could be different.
# [3] = CD activities in crude extracts of BL21 cells transformed with CD genes; assay type: biochemical; settings: cytosine 500 uM, triplicates, mean with standard deviation
# Experimental: Bacteria or cell lines were grown as described, harvested and stored at −80° C. until activity testing. Cells were submitted to brief sonication in extraction buffer (50 mM Tris/HCl pH 7.5, 1 mM DTT, 10% (v/v) glycerol, 1% (v/v) Triton X-100, protease inhibitor cocktail Complete™ from Roche Diagnostics). Cytosine deaminase activities were determined spectrophotometrically by monitoring the absorbance decrease at 286 nm (Δε286=−0.68 mM^−1 cm^−1) resulting from the deamination of cytosine to uracil. Assays were initiated by the addition of CD to 0.5 mM cytosine in 50 mM Tris-HCL at pH 7.5 and 30° C. and followed for 150 sec. One unit of CD was defined to catalyze the formation of 1 μmol of uracil per min. Dual beam recording ZEIS spectrophotometer, thermostated at 30° C., was used for the assays.
# To better characterize D. bruxellensis CD over expression of the protein in bacteria was done. In addition to D. bruxellensis CD, homologous genes from S. cerevisiae was also amplified from total genomic DNA and cloned as histidin tagged construct into pET100 bacterial expression vector. The plasmids were transformed into E. coli BL21 strain and protein expression was induced by IPTG for 8 hours. After harvesting, cell extracts were spectrophotometrically measured for cytosine and 5-FC deamination. All yeast CDs tested were functional when expressed in bacteria (Table 2).
molecule,measurement,setting,value
B1,"CD activity, Cytosine",[1],888.4 ± 4.8 U/mg/min
same,Time after which all activity was lost,[2],4 min
same,"CD activity, Cytosine",[3],40.69 ± 0.56
